Experimental data taken from patent US20040229366A1.

Target: AP1 expressed in planta (35S::AP1 transgene, or ectopically activated in the tfl mutant) (Arabidopsis thaliana) (UniProt P35631)
Experiment: cell-based or functional assay

Sequence of AP1 expressed in planta (35S::AP1 transgene, or ectopically activated in the tfl mutant) (Arabidopsis thaliana) (P35631 whole entry, change not shown): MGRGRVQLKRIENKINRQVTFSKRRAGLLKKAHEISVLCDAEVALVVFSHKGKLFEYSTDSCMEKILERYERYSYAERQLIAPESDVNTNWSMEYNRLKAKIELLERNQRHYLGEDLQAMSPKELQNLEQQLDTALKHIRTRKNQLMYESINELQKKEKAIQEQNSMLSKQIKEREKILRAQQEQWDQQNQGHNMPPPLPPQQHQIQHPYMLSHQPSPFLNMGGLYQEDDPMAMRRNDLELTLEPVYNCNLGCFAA

## SEP3 expressed from the 35S::SEP3 transgene in Arabidopsis (from UniProt O22456 1-251)
  rosette leaves formed before flowering, tfl mutation in combination with the 35S::SEP3 transgene (rosette leaves): 2
  rosette leaves produced before flowering, 35S::AP1 35S::SEP3 doubly transgenic plants (rosette leaves): 2
